B1: hSIRPα.50A (antibody, V domains shown)
VH: QVQLQQSGPELVKPGASVRISCKASGFTFTNYYIHWVKQRPGQGLEWIGWIYPGNVNTKYNEKFKAKATLTADKSSTTAYMQLSSLASEDSAVYFCARPTIIATDFDVWGAGTTVTVSS
VL: DIVMTQSHKFMSTSVGDRVNITCKASQGVGTAVGWYQQKPGQSPRLLIYWASTRHTGVPDRFTGSGSGTDFSLAISNVQSEDLADYFCQQYSTYPFTFGGGTNLEIK
notes: light chain constant domain not tied; also called mouse hSIRPα.50A; hSIRPα.50A.mIgG1
B2: hSIRPα.40A (antibody, mouse IgG1, kappa, V domains shown)
VH: EVQFQQSGTVLARPGTSVKMSCKASGSTFTSYWMHWVKQGPGQGLQWIGAIYPVNNDTTYNQKFKGKAELTVVTSTSTAYMEVSSLTNEDSAVYYCTRSFYYSLDAAWFVYWGQGTLVTVSA
VL: DIQMTQSPSSLSASLGERVSLTCRASQDIGSRLNWLQQEPDGTIKRLIYATSSLDSGVPKRFSGSRSGSDYSLTISGLESEDFVDYYCLQYASSPFTFGGGTKLEINR
notes: mouse antibody, full chains without signal peptide; also called mouse hSIRPα.40A

Experiments:
[1] = molecular target: T1, hSIRPα expressed on primary human cells (human, UniProt P78324 31-504); assay: flow cytometry, primary CD14+ enriched monocytes, donor 1
T1 construct: whole, on cells; also called hSIRPα on primary human CD14+ monocytes; on primary human granulocytes
Method: (§1) Next, the binding of hSIRPα.50A to hSIRPα expressed on primary human CD14⁺ monocytes was investigated. In addition, the ability of hSIRPα.50A to block the interaction between hSIRPα and recombinant hCD47/Fc-protein was assessed. For this purpose, CD14+ monocytes were isolated from Ficoll-purified human peripheral blood mononuclear cells (PBMCs) using RosetteSep human monocyte enrichment cocktail (Stemcell). The percentage of monocytes present after the enrichment was determined by flow cytometry on the FACSVerse (BD Biosciences) based on CD14 staining using an APC-Cy7-conjugated mouse-anti-human CD14 detection antibody (BD Biosciences). […] After this labeling procedure, cells were washed two times, resuspended in PBS/1% BSA containing 0.1 μg/mL DAPI (BioLegend), and analysed by flow cytometry on the FACSVerse (BD Biosciences). Data were processed and analysed with FlowJo V10 software (FlowJo, LLC).
(§2) To assess the blocking ability of hSIRPα.50A, CD14+ enriched monocytes cells were seeded in 96-well round bottomed tissue culture plates and incubated for 45 minutes with FcR Blocking Reagent (Miltenyi Biotec) and hSIRPα.50A antibody (200 μg/mL and dilutions thereof) in PBS/1% BSA at 4° C. […] After this labeling procedure, cells were washed two times, resuspended in PBS/1% BSA containing 0.1 μg/mL DAPI (BioLegend), and analysed by flow cytometry on the FACSVerse (BD Biosciences). […]

human SIRPγ = molecular target: T2, human SIRPγ (human, UniProt Q9P1W8 29-387); assay: CELISA, CHO-K1 transfectants; extrapolated
T2 construct: on transfected CHO-K1 cells; also called hSIRPγ
Method: Binding of the humanized antibodies to hSIRPα was studied in CELISA format. Binding of the hSIRPα antibodies to human SIRPαV1, SIRPαV2, hSIRPβ1, and hSIRPγ was confirmed using CHO-K1 cells that had been transiently transfected with cDNA encoding the full length open reading frame of each of these respective targets subcloned into the pCI-neo vector. CHO-K1.hSIRPαV1, CHO-K1.hSIRPαV2, CHO-K1.hSIRPβ1, and CHO-K1.hSIRPγ cells were seeded in culture medium (DMEM-F12 (Gibco) supplemented with 5% New Born Calf Serum (BioWest) and Pen/Strep (Gibco)) in 96-well flat-bottom tissue culture plates and incubated at 37° C., 5% CO₂ and 95% humidity until cell layers were confluent. Subsequently, culture medium was removed and cells were incubated for 1 hour at 37° C., 5% CO₂ and 95% humidity with purified hSIRPα antibodies (10 μg/mL and dilutions thereof). Next, cells were washed with PBS-T and incubated for 1 hour at 37° C., 5% CO₂ and 95% humidity with goat-anti-human IgG-HRP conjugate (Jackson Immuno Research) or goat-anti-mouse IgG-HRP (Southern Biotech). Subsequently, cells were washed three times with PBS-T and anti-hSIRPα immunoreactivity was visualized with TMB Stabilized Chromogen (Invitrogen). Reactions were stopped with 0.5 M H₂SO₄ and absorbances were read at 450 and 610 nm. […] In Table 13 the EC50 values of the humanized hSIRPα antibodies are depicted.
Table 13: Binding of humanized and parental hSIRPα.50A antibodies to CHO-K1.hSIRPαV1, CHO-K1.hSIRPαV2, CHO-K1.hSIRPβ1, and CHO-K1.hSIRPγ cells.

[2] = molecular target: T1, hSIRPα expressed on primary human cells; assay: flow cytometry on CD14+ enriched monocytes, human donor 1, AF647 goat-anti-mouse IgG
Method: as §1, with “hSIRPα.40A” for “hSIRPα.50A”
as §2, with “hSIRPα.40A,” for “hSIRPα.50A,”, “hSIRPα.40A” for “hSIRPα.50A”, “(20” for “(200”

T1 sequence (P78324 31-504): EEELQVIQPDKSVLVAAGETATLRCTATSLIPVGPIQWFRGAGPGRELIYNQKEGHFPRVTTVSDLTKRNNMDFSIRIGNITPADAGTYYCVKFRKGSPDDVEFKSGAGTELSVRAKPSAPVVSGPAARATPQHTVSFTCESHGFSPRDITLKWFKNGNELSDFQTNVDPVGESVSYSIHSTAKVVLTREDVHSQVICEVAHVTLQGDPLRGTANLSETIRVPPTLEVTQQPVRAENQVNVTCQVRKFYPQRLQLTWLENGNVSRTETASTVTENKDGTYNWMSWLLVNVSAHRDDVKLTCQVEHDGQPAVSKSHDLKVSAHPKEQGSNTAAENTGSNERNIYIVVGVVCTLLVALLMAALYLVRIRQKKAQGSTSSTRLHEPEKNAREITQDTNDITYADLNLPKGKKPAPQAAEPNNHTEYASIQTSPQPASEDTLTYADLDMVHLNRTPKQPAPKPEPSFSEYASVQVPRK
T2 sequence (Q9P1W8 29-387 limits assumed): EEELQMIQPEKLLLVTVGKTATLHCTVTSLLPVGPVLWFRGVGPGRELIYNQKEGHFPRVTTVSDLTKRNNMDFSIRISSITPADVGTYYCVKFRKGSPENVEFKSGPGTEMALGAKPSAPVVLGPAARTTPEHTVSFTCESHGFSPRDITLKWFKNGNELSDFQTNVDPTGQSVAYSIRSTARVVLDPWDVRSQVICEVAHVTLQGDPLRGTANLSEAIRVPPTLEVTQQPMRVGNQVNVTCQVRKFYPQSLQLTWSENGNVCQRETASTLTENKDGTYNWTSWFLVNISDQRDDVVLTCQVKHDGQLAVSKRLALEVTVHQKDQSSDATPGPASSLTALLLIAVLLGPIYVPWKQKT

Row | Binder | EC50 [1] [nM] | EC50 (human SIRPγ) [nM] | EC50 (read off the curve) [2] [nM]
1 | B1 | 7.38 | 1.25 | –
2 | B2 | – | – | ~1
